Laboratory results as given in patent US20260232827A1 (Zymeworks, published 2026).

T1: Construct 7 (human NaPi2b del 317-326) (human, UniProt O95436 1-690)
T1 construct: also called CL_#29921
T1 sequence: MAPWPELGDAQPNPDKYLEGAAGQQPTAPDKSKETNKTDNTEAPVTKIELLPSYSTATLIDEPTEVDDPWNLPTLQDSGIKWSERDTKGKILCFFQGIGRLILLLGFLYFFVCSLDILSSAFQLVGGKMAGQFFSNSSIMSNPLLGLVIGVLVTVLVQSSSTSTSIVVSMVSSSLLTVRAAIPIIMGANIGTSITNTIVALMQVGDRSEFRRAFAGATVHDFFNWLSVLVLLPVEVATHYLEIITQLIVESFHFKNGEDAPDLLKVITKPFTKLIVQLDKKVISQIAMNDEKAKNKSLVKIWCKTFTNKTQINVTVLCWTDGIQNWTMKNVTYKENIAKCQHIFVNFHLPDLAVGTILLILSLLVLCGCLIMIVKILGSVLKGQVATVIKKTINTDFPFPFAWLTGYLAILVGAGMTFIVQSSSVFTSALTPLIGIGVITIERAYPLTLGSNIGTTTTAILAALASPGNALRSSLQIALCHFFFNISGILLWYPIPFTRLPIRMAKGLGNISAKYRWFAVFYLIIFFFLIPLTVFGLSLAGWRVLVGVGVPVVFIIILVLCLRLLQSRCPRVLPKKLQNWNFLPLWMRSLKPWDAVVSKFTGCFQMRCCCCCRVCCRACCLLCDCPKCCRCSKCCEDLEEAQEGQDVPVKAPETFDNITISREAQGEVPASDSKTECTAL

T2: Construct 6 (human NaPi2b del 317-333) (human, UniProt O95436 1-690)
T2 construct: also called CL_#29919
T2 sequence: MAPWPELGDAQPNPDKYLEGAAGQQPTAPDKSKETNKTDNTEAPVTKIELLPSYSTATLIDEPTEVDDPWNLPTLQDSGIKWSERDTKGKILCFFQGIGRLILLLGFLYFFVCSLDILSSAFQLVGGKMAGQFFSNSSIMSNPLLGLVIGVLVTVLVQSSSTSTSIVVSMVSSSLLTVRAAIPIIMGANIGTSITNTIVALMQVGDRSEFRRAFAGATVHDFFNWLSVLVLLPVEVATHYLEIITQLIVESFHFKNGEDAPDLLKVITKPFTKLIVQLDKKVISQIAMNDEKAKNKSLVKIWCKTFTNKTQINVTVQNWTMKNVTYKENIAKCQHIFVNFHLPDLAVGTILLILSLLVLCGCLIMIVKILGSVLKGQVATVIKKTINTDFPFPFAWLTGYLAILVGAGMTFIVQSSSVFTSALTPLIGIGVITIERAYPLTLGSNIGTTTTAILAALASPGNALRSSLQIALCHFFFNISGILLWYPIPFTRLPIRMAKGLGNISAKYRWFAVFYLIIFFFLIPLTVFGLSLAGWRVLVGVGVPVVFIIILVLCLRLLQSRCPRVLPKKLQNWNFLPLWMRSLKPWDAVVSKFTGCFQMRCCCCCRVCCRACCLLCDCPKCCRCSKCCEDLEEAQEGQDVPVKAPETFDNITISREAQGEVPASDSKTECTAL

B1: lifastuzumab (v18993), reference anti-NaPi2b antibody (antibody, human IgG1, kappa)
heavy 1: GEVQLVESGGGLVQPGGSLRLSCAASGFSFSDFAMSWVRQAPGKGLEWVATIGRVAFHTYYPDSMKGRFTISRDNSKNTLYLQMNSLRAEDTAVYYCARHRGFDVGHFDFWGQGTLVTVSSASTKGPSVFPLAPSSKSTSGGTAALGCLVKDYFPEPVTVSWNSGALTSGVHTFPAVLQSSGLYSLSSVVTVPSSSLGTQTYICNVNHKPSNTKVDKKVEPKSCDKTHTCPPCPAPELLGGPSVFLFPPKPKDTLMISRTPEVTCVVVDVSHEDPEVKFNWYVDGVEVHNAKTKPREEQYNSTYRVVSVLTVLHQDWLNGKEYKCKVSNKALPAPIEKTISKAKGQPREPQVYVYPPSRDELTKNQVSLTCLVKGFYPSDIAVEWESNGQPENNYKTTPPVLDSDGSFALVSKLTVDKSRWQQGNVFSCSVMHEALHNHYTQKSLSLSPG
heavy 2: not shown
light: GDIQMTQSPSSLSASVGDRVTITCRSSETLVHSSGNTYLEWYQQKPGKAPKLLIYRVSNRFSGVPSRFSGSGSGTDFTLTISSLQPEDFATYYCFQGSFNPLTFGQGTKVEIKRTVAAPSVFIFPPSDEQLKSGTASVVCLLNNFYPREAKVQWKVDNALQSGNSQESVTEQDSKDSTYSLSSTLTLSKADYEKHKVYACEVTHQGLSSPVTKSFNRGEC
B2: MX35 (v18992), reference anti-NaPi2b antibody (antibody, human IgG1, kappa)
heavy 1: GQVQLVQSGAEVVKPGASVKMSCKASGYTFTGYNIHWVKQAPGQGLEWIGAIYPGNGDTSYKQKFRGRATLTADTSTSTVYMELSSLRSEDSAVYYCARGETARATFAYWGQGTLVTVSSASTKGPSVFPLAPSSKSTSGGTAALGCLVKDYFPEPVTVSWNSGALTSGVHTFPAVLQSSGLYSLSSVVTVPSSSLGTQTYICNVNHKPSNTKVDKKVEPKSCDKTHTCPPCPAPELLGGPSVFLFPPKPKDTLMISRTPEVTCVVVDVSHEDPEVKFNWYVDGVEVHNAKTKPREEQYNSTYRVVSVLTVLHQDWLNGKEYKCKVSNKALPAPIEKTISKAKGQPREPQVYVYPPSRDELTKNQVSLTCLVKGFYPSDIAVEWESNGQPENNYKTTPPVLDSDGSFALVSKLTVDKSRWQQGNVFSCSVMHEALHNHYTQKSLSLSPG
heavy 2: not shown
light: GDIQMTQSPSSLSASVGDRVTITCSASQDIGNFLNWYQQKPGKTVKVLIYYTSSLYSGVPSRFSGSGSGTDYTLTISSLQPEDFATYYCQQYSKLPLTFGQGTKLELKRTVAAPSVFIFPPSDEQLKSGTASVVCLLNNFYPREAKVQWKVDNALQSGNSQESVTEQDSKDSTYSLSSTLTLSKADYEKHKVYACEVTHQGLSSPVTKSFNRGEC
B3: v38591 (humanized anti-NaPi2b antibody, H1L2, wild-type Fc, heavy chains with C-terminal lysine) (antibody, human IgG1, kappa)
heavy: not shown
light: DVQMTQSPSSLSASVGDRVTITCRASQDVYSYLNWYQQKPGKAVKLLIYYTSRLQSGVPSRFSGSGSGTDYTLTISSLQPEDFATYYCQQYNIFPWTFGQGTKLEIKRTVAAPSVFIFPPSDEQLKSGTASVVCLLNNFYPREAKVQWKVDNALQSGNSQESVTEQDSKDSTYSLSSTLTLSKADYEKHKVYACEVTHQGLSSPVTKSFNRGEC
notes: Full-size human IgG1/kappa antibody; also called v38591 (wild-type Fc)
B4: palivizumab (v21995), anti-RSV antibody, negative control (antibody, human IgG1, kappa, V domains shown)
VH: QVTLRESGPALVKPTQTLTLTCTFSGFSLSTSGMSVGWIRQPPGKALEWLADIWWDDKKDYNPSLKSRLTISKDTSKNQVVLKVTNMDPADTATYYCARSMITNWYFDVWGAGTTVTVSS
VL: DIQMTQSPSTLSASVGDRVTITCKSQLSVGYMHWYQQKPGKAPKLLIYDTSKLASGVPSRFSGSGSGTEFTLTISSLQPDDFATYYCFQGSGYPFTFGGGTKLEIKR

Columns and labels:
Test in all cases: flow cytometry, transfected HEK293-6e cells, antibody 20 nM
[1] = target: T3, Construct 5 (chimeric human NaPi2b, swap in NaPi2a in 304-348) (human)
T3 construct: also called CL_#13436

[2] = target: T1, Construct 7 (human NaPi2b del 317-326)
[3] = target: T4, Construct 3 (chimeric human NaPi2b, swap in NaPi2c in 304-321) (human)
T4 construct: also called CL_#29916

[4] = target: T2, Construct 6 (human NaPi2b del 317-333)

| Binder | Background-Subtracted AF647 Mean Fluorescence Intensity [1] | Background-Subtracted AF647 Mean Fluorescence Intensity [2] | Background-Subtracted AF647 Mean Fluorescence Intensity [3] | Background-Subtracted AF647 Mean Fluorescence Intensity [4] |
| --- | --- | --- | --- | --- |
| B1 | 52 MFI | 35 MFI | 920 MFI | -3 MFI |
| B2 | 79 MFI | 233 MFI | 930 MFI | 67 MFI |
| B3 |  | 981 MFI | 1120 MFI | -7 MFI |
| B4 | 123 MFI | -85 MFI | 39 MFI | 1 MFI |
